For assay [1], the target named is Aspart precursor.
For assay [2], the target named is Aspart precursor. This is another data set of the same source.

In the case of Carboxypeptidase B (enzyme), the Yield (%) of Aspart, trypsin and Carboxypeptidase B added together in the assay with Aspart precursor [1] came out at 75%. In the assay with Lispro precursor, this substance yielded a Yield (%) of Lispro, trypsin and Carboxypeptidase B added together of 78%. The same substance registered a Yield (%) of Glulisine, trypsin and Carboxypeptidase B added together with Glulisine precursor of 78%.

Trypsin (enzyme) had a conversion of the precursor by trypsin alone (chromatographic profile after 8 hr) in the assay with Aspart precursor [2] of 45%.
